Reference: PMC10397247

Assays:
[1] = target: T1, O9; test: two-hybrid library CC0; conditions: mean of both orientations;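 further: natural log of median RNA to DNA barcode read ratio; higher means stronger binding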
T1 chain: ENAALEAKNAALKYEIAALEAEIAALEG

[2] = target: T2, 4H454-bH; test: two-hybrid library CCNG1;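 further: natural log of median RNA to DNA barcode read ratio; higher means stronger binding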
T2 chain: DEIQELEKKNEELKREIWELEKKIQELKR

[3] = target: T3, 4H883-bH; test: two-hybrid library CCNG1;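 further: natural log of median RNA to DNA barcode read ratio; higher means stronger binding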
T3 chain: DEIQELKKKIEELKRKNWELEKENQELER

[4] = target: T4, 4H687-bH; test: two-hybrid library CCNG1;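 further: natural log of median RNA to DNA barcode read ratio; higher means stronger binding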
T4 chain: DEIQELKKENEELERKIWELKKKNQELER

[5] = target: T5, 4H918-bH; test: two-hybrid library CCNG1
T5 chain: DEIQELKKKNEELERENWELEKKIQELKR

[6] = target: T6, 4H3926-bA; test: two-hybrid library CCNG1
T6 chain: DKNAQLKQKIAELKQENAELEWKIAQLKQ

[7] = target: T7, 4H4001-bH; test: two-hybrid library CCNG1
T7 chain: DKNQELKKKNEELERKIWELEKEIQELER

[8] = target: T8, 4H717-bH; test: two-hybrid library CCNG1
T8 chain: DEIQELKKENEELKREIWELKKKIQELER

[9] = target: T9, 4H568-bH; test: two-hybrid library CCNG1
T9 chain: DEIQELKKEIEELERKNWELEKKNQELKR

[10] = target: T10, 4H338-bH; test: two-hybrid library CCNG1
T10 chain: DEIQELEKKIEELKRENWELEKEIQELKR

[11] = target: T11, 4H797-bH; test: two-hybrid library CCNG1
T11 chain: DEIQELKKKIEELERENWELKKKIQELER

[12] = target: T12, 4H967-bH; test: two-hybrid library CCNG1
T12 chain: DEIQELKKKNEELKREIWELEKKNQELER

[13] = target: T13, 4H607-bH; test: two-hybrid library CCNG1
T13 chain: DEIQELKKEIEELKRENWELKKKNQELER

[14] = target: T14, 4H3427-bH; test: two-hybrid library CCNG1
T14 chain: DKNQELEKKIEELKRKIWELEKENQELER

[15] = target: T15, 4H3855-bH; test: two-hybrid library CCNG1
T15 chain: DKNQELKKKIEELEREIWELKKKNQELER

[16] = target: T16, 4H953-bH; test: two-hybrid library CCNG1
T16 chain: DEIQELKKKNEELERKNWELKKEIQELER

[17] = target: T17, 4H72-bH; test: two-hybrid library CCNG1
T17 chain: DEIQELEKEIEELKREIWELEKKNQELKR

[18] = target: T18, 4H3782-bH; test: two-hybrid library CCNG1
T18 chain: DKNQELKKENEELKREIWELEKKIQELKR

[19] = target: T19, 4H908-bH; test: two-hybrid library CCNG1
T19 chain: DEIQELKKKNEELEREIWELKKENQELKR

[20] = target: T20, 4H754-bH; test: two-hybrid library CCNG1
T20 chain: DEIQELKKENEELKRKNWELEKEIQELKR

[21] = target: T21, 4H2466-AA; test: two-hybrid library CCmax; conditions: mean of both orientations
T21 chain: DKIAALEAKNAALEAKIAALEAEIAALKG

[22] = target: T22, 4H342-AA; test: two-hybrid library CCmax; conditions: mean of both orientations
T22 chain: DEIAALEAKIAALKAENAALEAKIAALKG

[23] = target: T23, 4H3844-AA; test: two-hybrid library CCmax; conditions: mean of both orientations
T23 chain: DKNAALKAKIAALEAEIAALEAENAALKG

[24] = target: T24, 4H2837-AA; test: two-hybrid library CCmax; conditions: mean of both orientations
T24 chain: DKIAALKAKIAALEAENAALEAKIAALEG

[25] = target: T25, 4H317-AA; test: two-hybrid library CCmax; conditions: mean of both orientations
T25 chain: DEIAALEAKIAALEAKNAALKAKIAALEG

[26] = target: T26, 4H2277-AA; test: two-hybrid library CCmax
T26 chain: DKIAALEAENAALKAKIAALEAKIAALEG

[27] = target: T27, 4H3627-AA; test: two-hybrid library CCmax; conditions: mean of both orientations
T27 chain: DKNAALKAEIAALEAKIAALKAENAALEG

[28] = target: T28, 4H3655-AA; test: two-hybrid library CCmax; conditions: mean of both orientations
T28 chain: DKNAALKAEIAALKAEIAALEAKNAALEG

[29] = target: T29, 4H3921-AA; test: two-hybrid library CCmax; conditions: mean of both orientations
T29 chain: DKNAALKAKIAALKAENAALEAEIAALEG

[30] = target: T30, 4H780-AA; test: two-hybrid library CCmax
T30 chain: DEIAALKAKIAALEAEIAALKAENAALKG

[31] = target: T31, 4H2575-AA; test: two-hybrid library CCmax; conditions: mean of both orientations
T31 chain: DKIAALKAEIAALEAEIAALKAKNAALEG

[32] = target: T32, 4H2617-AA; test: two-hybrid library CCmax; conditions: mean of both orientations
T32 chain: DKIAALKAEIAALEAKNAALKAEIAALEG

[33] = target: T33, 4H2883-AA; test: two-hybrid library CCmax; conditions: mean of both orientations
T33 chain: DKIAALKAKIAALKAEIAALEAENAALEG

[34] = target: T34, 4H906-AA; test: two-hybrid library CCmax; conditions: mean of both orientations
T34 chain: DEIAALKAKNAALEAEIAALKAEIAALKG

[35] = target: T35, 4H2949-AA; test: two-hybrid library CCmax; conditions: mean of both orientations
T35 chain: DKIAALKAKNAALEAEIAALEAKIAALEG

[36] = target: T36, 4H454-AA; test: two-hybrid library CCmax; conditions: mean of both orientations
T36 chain: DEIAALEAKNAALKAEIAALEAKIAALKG

[37] = target: T37, 4H2642-AA; test: two-hybrid library CCmax; conditions: mean of both orientations
T37 chain: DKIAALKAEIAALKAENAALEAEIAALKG

[38] = target: T38, 4H3343-AA; test: two-hybrid library CCmax; conditions: mean of both orientations
T38 chain: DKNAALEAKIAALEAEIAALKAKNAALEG

[39] = target: T39, 4H794-AA; test: two-hybrid library CCmax; conditions: mean of both orientations
T39 chain: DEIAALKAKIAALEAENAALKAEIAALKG

[40] = target: T40, 4H48-AA; test: two-hybrid library CCmax; conditions: mean of both orientations
T40 chain: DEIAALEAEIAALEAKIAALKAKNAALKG

[41] = target: T41, 4H717-AA; test: two-hybrid library CCmax; conditions: mean of both orientations
T41 chain: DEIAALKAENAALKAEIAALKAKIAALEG

[42] = target: T42, 4H605-AA; test: two-hybrid library CCmax; conditions: mean of both orientations
T42 chain: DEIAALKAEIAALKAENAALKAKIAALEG

[43] = target: T43, 4H2754-AA; test: two-hybrid library CCmax; conditions: mean of both orientations
T43 chain: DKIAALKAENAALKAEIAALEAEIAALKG

[44] = target: T44, 4H2505-AA; test: two-hybrid library CCmax; conditions: mean of both orientations
T44 chain: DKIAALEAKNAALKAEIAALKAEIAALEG

[45] = target: T45, 4H881-AA; test: two-hybrid library CCmax; conditions: mean of both orientations
T45 chain: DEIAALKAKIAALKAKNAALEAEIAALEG

[46] = target: T46, 4H3606-AA; test: two-hybrid library CCmax; conditions: mean of both orientations
T46 chain: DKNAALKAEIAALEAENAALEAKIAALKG

[47] = target: T47, 4H335-AA; test: two-hybrid library CCmax; conditions: mean of both orientations
T47 chain: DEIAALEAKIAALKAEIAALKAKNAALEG

[48] = target: T48, 4H3427-AA; test: two-hybrid library CCmax; conditions: mean of both orientations
T48 chain: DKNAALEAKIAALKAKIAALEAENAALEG

[49] = target: T49, 4H2944-AA; test: two-hybrid library CCmax; conditions: mean of both orientations
T49 chain: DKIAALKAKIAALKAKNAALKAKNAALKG

[50] = target: T50, 4H566-AA; test: two-hybrid library CCmax; conditions: mean of both orientations
T50 chain: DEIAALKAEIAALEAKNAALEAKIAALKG

[51] = target: T51, 4H993-AA; test: two-hybrid library CCmax; conditions: mean of both orientations
T51 chain: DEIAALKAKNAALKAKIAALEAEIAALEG

[52] = target: T52, 4H678-AA; test: two-hybrid library CCmax; conditions: mean of both orientations
T52 chain: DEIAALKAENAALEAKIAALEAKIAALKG

[53] = target: T53, 4H2393-AA; test: two-hybrid library CCmax
T53 chain: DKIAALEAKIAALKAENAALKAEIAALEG

[54] = target: T54, 4H2354-AA; test: two-hybrid library CCmax; conditions: mean of both orientations
T54 chain: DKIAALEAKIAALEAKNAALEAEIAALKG

[55] = target: T55, 4H2729-AA; test: two-hybrid library CCmax; conditions: mean of both orientations
T55 chain: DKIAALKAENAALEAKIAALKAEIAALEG

[56] = target: T56, 4H234-AA; test: two-hybrid library CCmax; conditions: mean of both orientations
T56 chain: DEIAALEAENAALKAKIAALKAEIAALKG

[57] = target: T57, 4H3112-AA; test: two-hybrid library CCmax; conditions: mean of both orientations
T57 chain: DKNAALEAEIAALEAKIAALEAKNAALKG

[58] = target: T58, 4H429-AA; test: two-hybrid library CCmax; conditions: mean of both orientations
T58 chain: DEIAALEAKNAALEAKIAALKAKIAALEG

[59] = target: T59, 4H492-bH; test: two-hybrid library CCNG1
T59 chain: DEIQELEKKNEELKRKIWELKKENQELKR

[60] = target: T60, 4H477-bH; test: two-hybrid library CCNG1
T60 chain: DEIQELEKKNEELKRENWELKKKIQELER

[61] = target: T61, 4H40-bH; test: two-hybrid library CCNG1
T61 chain: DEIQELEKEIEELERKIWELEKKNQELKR

[62] = target: T62, 4H348-bH; test: two-hybrid library CCNG1
T62 chain: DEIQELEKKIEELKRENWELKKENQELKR

[63] = target: T63, 4H741-bH; test: two-hybrid library CCNG1
T63 chain: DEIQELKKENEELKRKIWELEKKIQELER

ENAALEAKNAALKYEIAALEAEIAALEG [O9]
interaction score [1]: -2.72

DEIQELEKKIEELKRENWELEKEIQELKR [4H338-bH]
interaction score [2]: 1.38
interaction score [3]: 0.0489
interaction score [4]: -0.366
interaction score [5]: -0.137
interaction score [6]: 1.81
interaction score [7]: 0.346
interaction score [8]: 0.186
interaction score [9]: 0.785
interaction score [10]: 1.76
interaction score [11]: -0.318
interaction score [12]: 0.908
interaction score [13]: 0.393
interaction score [14]: 0.373
interaction score [15]: 0.141
interaction score [16]: 1.25
interaction score [17]: -1.44
interaction score [18]: -0.321
interaction score [19]: -3.02
interaction score [20]: 0.366

DKIAALEAENAALKAKIAALEAKIAALEG [4H2277-AA]
interaction score [21]: -1.07
interaction score [22]: -0.907
interaction score [23]: -1.39
interaction score [24]: -1.08
interaction score [25]: -1.02
interaction score [26]: 1.95
interaction score [27]: -1.28
interaction score [28]: -1.32
interaction score [29]: -1.56
interaction score [30]: -1.36
interaction score [31]: -1.59
interaction score [32]: -1.68
interaction score [33]: -1.6
interaction score [34]: -1.51
interaction score [35]: 0.749
interaction score [36]: 1.29
interaction score [37]: -0.59
interaction score [38]: -1.26
interaction score [39]: -1.24
interaction score [40]: -1.36
interaction score [41]: -0.927
interaction score [42]: -1.38
interaction score [43]: 0.512
interaction score [44]: -0.635
interaction score [45]: -1.05
interaction score [46]: -1.85
interaction score [47]: -1.2
interaction score [48]: -1.51
interaction score [49]: -1.56
interaction score [50]: -0.827
interaction score [51]: 0.398
interaction score [52]: 0.351
interaction score [53]: -1.39
interaction score [54]: -1.26
interaction score [55]: 0.856
interaction score [56]: -0.0407
interaction score [57]: -1.43
interaction score [58]: -0.713

DEIQELEKKIEELKRENWELKKENQELKR [4H348-bH]
interaction score [59]: -0.683
interaction score [60]: 0.107
interaction score [61]: -0.14
interaction score [62]: 0.666
interaction score [63]: 1.04
